From US20150315272A1 (published 2015) come the findings set out here.

Usually Kd stands for the concentration at which binding is half-saturated.

For assay [1], the target named is T1, Recombinant IL-17A/F heterodimer (IL-17A and IL-17F linked by a GS linker) (human).
T1 construct: also called heterodimer A/F; human recombinant IL-17A/F heterodimer
Put plainly: Biacore 3000 SPR, 25 C, antibody captured by anti-mouse IgG Fc, cytokine titrated from 25 nM. A general note: In SPR one partner is held on a chip, and binding of the other changes the refractive index at the surface.
Method: All experiments were performed at 25° C. Affinipure F(ab′)₂ fragment goat anti-mouse IgG, Fc fragment specific (Jackson ImmunoResearch) was immobilised on a CMS Sensor Chip (Biacore AB) via amine coupling chemistry to a capture level of ≈6000 response units (RUs). HBS-EP buffer (10 mM HEPES pH 7.4, 0.15 M NaCl, 3 mM EDTA, 0.005% Surfactant P20, Biacore AB) was used as the running buffer with a flow rate of 10 μL/min. […] The surface was regenerated at a flowrate of 10 uL/min by a 10 μL injection of 40 mM HCl, followed by a 5 μL injection of 5 mM NaOH.
Double referenced background subtracted binding curves were analysed using the BIAevaluation software (version 3.2) following standard procedures. Kinetic parameters were determined from the fitting algorithm.

The next assay has as its target T2, IL-17B (UniProt Q9UHF5 21-180).
T2 sequence (looked up): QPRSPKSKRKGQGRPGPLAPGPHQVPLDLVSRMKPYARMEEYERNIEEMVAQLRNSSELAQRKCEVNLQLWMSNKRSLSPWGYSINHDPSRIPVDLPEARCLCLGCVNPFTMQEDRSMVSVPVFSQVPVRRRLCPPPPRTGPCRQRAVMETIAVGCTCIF
Put plainly: Biacore 3000 SPR, antibody captured by anti-human IgG Fc.

The next assay concerns the target T3, IL-17D (UniProt Q8TAD2 18-202, limits assumed).
T3 sequence (looked up): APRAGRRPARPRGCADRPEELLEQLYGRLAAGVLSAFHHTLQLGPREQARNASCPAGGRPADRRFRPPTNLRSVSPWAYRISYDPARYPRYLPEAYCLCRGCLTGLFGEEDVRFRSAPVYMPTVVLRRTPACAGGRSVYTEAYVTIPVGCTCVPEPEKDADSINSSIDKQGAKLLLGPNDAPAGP
The assay is described as above.

For a further assay, the target named is T4, IL-17E (UniProt Q9H293 33-177).
T4 sequence (looked up): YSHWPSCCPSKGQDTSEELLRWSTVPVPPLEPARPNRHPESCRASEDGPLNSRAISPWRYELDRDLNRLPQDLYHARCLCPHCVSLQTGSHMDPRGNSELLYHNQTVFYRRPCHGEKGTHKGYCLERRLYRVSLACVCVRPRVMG
The assay is described as above.

Another assay has as its target T5, IL-17C (UniProt Q9P0M4 19-197).
T5 sequence (looked up): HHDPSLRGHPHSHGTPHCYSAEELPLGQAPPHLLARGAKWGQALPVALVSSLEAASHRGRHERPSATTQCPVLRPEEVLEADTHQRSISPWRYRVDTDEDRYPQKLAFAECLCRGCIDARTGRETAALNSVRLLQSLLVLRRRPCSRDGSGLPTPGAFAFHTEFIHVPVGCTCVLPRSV
The description is as above.

T1 sequence (chain, as listed by the source limits assumed): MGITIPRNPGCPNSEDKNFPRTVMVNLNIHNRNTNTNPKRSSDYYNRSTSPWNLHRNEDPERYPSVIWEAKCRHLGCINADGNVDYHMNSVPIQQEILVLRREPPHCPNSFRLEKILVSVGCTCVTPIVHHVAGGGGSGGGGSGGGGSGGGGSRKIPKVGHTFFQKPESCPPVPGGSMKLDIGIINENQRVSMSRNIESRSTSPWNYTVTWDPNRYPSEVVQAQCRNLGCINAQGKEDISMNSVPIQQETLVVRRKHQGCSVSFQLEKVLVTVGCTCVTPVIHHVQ
Method for IL-17B: (§1) All experiments were performed at 25° C. Affinipure Fc Fragment goat anti-human IgG, Fc fragment specific (Jackson ImmunoResearch) was immobilised on a CMS Sensor Chip via amine coupling chemistry to a capture level of ≈6000 response units (RUs). HBS-EP buffer (10 mM HEPES pH 7.4, 0.15 M NaCl, 3 mM EDTA, 0.005% Surfactant P20, Biacore AB) was used as the running buffer with a flow rate of 10 μl/min. […] The surface was regenerated by a 30 μL injections of 40 mM HCl, followed by one 5 μL injection of 5 mM NaOH.
(§2) Background subtraction binding curves were double referenced and analysed using the BIAevaluation software (version 3.2) following standard procedures. Kinetic parameters were determined from the fitting algorithm.
Method for IL-17C: as §1, §2
Method for IL-17D: as §1, §2
Method for IL-17E: as §1, §2

B1: Antibody CA028-0496 (murine IgG1 constant regions) (antibody, V domains shown)
VH: EVQLVESGGGLVQPGGSLRLSCAASGFTFSDYNMAWVRQAPGKGLEWVATITYEGRNTYYRDSVKGRFTISRDNAKNSLYLQMNSLRAEDTAVYYCASPPQYYEGSIYRLWFAHWGQGTLVTVSS
VL: AIQLTQSPSSLSASVGDRVTITCRADESVTTLMHWYQQKPGKAPKLLIYLVSNRESGVPSRFSGSGSGTDFTLTISSLQPEDFATYYCQQTWSDPWTFGQGTKVEIKR
notes: captured by anti-mouse IgG Fc
B1: the dissociation constant Kd in assay [1] amounted to 0.116 nM.

B2: Antibody CA028-0496 (human IgG4 constant regions) (antibody, V domains shown)
VH: B1 VH
VL: B1 VL
notes: human gamma-4 constant region with hinge mutation S241P and human C-kappa (Km3), made in CHO cells; also called CA028496
Take B2: the binding result in the assay with IL-17B, in the assay with IL-17D, with IL-17E and with IL-17C was “no binding” in each case.
